Test [1] addresses T1, myc-tagged human EphB4 on transfected CHO cells (human, UniProt P54760 16-987).
T1 construct: whole, on cells; also called CHO-EphB4; CHO-hEphB4; not shown: myc tag
T1 sequence (looked up): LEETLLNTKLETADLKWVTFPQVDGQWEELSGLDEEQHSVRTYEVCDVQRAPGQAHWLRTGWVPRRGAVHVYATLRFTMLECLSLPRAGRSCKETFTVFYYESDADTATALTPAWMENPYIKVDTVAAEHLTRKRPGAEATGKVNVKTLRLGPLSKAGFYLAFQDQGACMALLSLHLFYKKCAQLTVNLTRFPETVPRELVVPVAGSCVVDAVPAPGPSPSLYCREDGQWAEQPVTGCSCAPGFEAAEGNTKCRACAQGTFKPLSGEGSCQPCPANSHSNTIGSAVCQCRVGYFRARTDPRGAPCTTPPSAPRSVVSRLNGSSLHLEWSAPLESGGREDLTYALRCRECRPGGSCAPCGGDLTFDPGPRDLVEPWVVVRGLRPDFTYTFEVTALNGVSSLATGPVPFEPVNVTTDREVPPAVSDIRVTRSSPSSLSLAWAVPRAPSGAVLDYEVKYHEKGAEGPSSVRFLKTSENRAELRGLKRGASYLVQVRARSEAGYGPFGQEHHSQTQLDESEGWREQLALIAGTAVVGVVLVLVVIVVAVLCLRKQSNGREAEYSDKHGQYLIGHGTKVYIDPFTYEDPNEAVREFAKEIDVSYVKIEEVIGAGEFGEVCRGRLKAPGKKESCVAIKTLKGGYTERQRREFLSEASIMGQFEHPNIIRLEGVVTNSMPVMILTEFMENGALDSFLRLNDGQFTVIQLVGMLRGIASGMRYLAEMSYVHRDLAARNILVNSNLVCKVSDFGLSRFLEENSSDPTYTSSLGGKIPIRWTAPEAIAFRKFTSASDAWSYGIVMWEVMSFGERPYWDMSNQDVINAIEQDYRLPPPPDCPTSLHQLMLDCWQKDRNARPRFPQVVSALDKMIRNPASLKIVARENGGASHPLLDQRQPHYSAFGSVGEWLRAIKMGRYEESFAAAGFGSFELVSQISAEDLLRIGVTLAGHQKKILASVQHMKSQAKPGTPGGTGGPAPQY
In words: FACS, IgG4-Pro inhibition of murine ephrin-B2 binding to CHO-EphB4 cells. How it is done:
(§1) C50 values (i.e. IgG4-Pro inhibition of ligand binding) were determined in FACS. […] Receptor-bound ephrin-B2 was detected via biotinylated anti-mouse ephrin-B2 antibody (R&D Systems) and streptavidin-PE. The IC50 values of the IgGs, determined in two independent experiments, are given in Table 11 and are compared to the IC50 values of the corresponding Fab. […] Again, as already seen for the Fab, the IC50 values of the MOR07310 pool were slightly better than those of the MOR03641 pool.

Test [2] concerns the target T1, myc-tagged human EphB4 on transfected …. As to the kind of experiment: FACS competition on CHO-EphB4 cells, competitor murine ephrin-B2. On the procedure: as §1
Test [3] shares this target. In words: FACS titration of IgG4-Pro on CHO-EphB4 cells; n = 1. How it is done:
(§2) For the determination of EC50 values, the 12 final IgGs were analyzed on CHO-EphB4 cells in FACS. The EC50 values of the IgGs, determined in two independent experiments, are given in Table 11 and are compared to the EC50 values of the corresponding Fab. […] Again, as already seen for the Fab, the EC50 values of the MOR07310 pool were slightly better than those of the MOR03641 pool.

In test [4] the target is T2, recombinant human EphB4-Fc fusion protein (human, UniProt P54760 16-539).
T2 construct: extracellular domain; also called hEphB4; hu EphB4-Fc
T2 sequence (looked up): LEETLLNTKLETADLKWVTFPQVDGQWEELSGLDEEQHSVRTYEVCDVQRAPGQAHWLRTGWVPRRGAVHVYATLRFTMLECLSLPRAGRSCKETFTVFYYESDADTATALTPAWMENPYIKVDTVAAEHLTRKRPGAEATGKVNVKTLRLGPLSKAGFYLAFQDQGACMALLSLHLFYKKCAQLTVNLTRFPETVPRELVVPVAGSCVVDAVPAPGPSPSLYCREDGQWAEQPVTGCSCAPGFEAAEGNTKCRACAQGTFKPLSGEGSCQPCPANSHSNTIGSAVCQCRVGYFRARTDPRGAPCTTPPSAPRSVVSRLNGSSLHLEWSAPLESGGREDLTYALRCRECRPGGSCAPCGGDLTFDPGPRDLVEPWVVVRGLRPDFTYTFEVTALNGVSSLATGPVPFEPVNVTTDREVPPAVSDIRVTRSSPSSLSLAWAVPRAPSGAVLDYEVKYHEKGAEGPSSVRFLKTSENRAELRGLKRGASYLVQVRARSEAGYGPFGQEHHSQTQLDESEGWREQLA
As to the kind of experiment: ELISA: biotinylated mEphrinB2 (250 ng/mL) on coated hEphB4, with or without 100 µg/mL anti-EphB4 Fab. How it is done:
(§3) A 96-well plate was coated with recombinant mEphB3, mEphA4 and hEphB4 in PBS o/n at 4° C. (5 μg/mL; 100 μL/well). The next day, the antigen was discarded and the plate blocked with 3% BSA/PBS (300 μl/well) for 2 hrs at room temperature (RT). Blocking solution was discarded and anti-EphB4 Fabs were added to the wells at a concentration of 100 μg/mL in 1% BSA/PBS and incubated for 30 min at RT. Recombinant biotinylated murine EphrinB2 was added at a final concentration of 250 ng/mL and incubated at RT for a further 30 min. The plate was washed and bound EphrinB2 was detected with Streptavidin-HRP (incubation 30 min at RT) and chemifluorescent substrate.

The target of test [5] is T3, recombinant mouse EphB3-Fc fusion protein (mouse, UniProt P54754 30-537, limits assumed).
T3 construct: also called mEphB3; not shown: Fc part, not described
T3 sequence (looked up): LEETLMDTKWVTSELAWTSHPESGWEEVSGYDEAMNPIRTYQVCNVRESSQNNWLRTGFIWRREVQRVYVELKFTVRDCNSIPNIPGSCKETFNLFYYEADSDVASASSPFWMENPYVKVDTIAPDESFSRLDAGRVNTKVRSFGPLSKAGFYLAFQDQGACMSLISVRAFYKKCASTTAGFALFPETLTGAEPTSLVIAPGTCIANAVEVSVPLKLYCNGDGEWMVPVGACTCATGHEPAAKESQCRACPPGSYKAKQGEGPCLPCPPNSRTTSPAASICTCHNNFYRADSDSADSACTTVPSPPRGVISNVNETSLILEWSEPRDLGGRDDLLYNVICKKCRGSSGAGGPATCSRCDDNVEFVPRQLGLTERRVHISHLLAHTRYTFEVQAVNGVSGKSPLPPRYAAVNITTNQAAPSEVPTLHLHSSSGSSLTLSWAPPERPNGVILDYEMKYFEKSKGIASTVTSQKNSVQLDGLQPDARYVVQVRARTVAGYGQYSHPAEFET
As to the kind of experiment: ELISA: biotinylated mEphrinB2 (250 ng/mL) on coated mEphB3, with or without 100 µg/mL anti-EphB4 Fab. On the procedure: as §3

Test [6] addresses T4, recombinant mouse EphA4-Fc fusion protein (mouse, UniProt Q03137 20-547, limits assumed).
T4 construct: also called mEphA4; not shown: Fc part, not described
As to the kind of experiment: ELISA: biotinylated mEphrinB2 on coated mEphA4. How it is done: as §3
On the technique in general: ELISA stands for enzyme-linked immunosorbent assay.

Test [7] addresses T1, myc-tagged human EphB4 on transfected …. In words: FACS titration of IgG4-Pro on CHO-EphB4 cells. How it is done:
as §2

For test [8] the target is unchanged. As to the kind of experiment: FACS titration of IgG4-Pro on CHO-EphB4 cells; end tied by Table 11 (4.83). How it is done: as §2
The target is the same in test [9]. In words: FACS, IgG4-Pro inhibition of murine ephrin-B2 binding to CHO-EphB4 cells; end tied by Table 11 (11.55). On the procedure:
as §1
(In general: In flow cytometry, cells or beads pass a laser one at a time.)

T4 sequence (Q03137 20-547 limits assumed): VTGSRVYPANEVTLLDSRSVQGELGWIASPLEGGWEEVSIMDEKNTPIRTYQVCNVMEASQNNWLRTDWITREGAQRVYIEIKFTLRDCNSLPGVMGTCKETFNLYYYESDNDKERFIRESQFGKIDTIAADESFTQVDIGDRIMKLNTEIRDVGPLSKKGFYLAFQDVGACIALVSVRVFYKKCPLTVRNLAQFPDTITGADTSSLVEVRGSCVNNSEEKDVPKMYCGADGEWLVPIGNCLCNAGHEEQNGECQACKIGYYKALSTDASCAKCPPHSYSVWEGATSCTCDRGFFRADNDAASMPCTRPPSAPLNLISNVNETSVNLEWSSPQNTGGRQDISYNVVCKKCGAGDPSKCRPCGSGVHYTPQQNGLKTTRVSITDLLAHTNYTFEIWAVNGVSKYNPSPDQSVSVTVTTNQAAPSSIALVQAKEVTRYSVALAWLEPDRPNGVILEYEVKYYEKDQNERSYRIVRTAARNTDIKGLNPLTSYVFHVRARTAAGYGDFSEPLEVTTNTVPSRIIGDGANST

B1: MOR07720 IgG4-Pro (antibody, V domains shown)
VH: QVQLVESGGGLVQPGGSLRLSCAASGFTFNNAWMSWVRQAPGKGLEWVSQIEAKQPGGATSYAASVKGRFTISRDNSKNTLYLQMNSLRAEDTAVYYCARKGMSFYNNKYAKSMFDLWGQGTLVTVSS
VL: DIELTQPPSVSVAPGQTARISCSGDNLGKKYVHWYQQKPGQAPVLVIYYDSKRPSGIPERFSGSNSGNTATLTISGTQAEDEADYYCSAWTTTMMHIVFGGGTKLTVLG
notes: Fab MOR07720 converted into human IgG4-Pro format
The IC50 is the concentration at which inhibition is half-maximal. Higher therefore signals weaker potency in that assay. The term EC50 denotes the concentration needed to bring the measured effect to its halfway point. A high value points to lower potency in that assay. Molecule B1 had an IC50 in [1] of 0.11 nM. For the same molecule, the “IC50 (read off the curve)” value in [2] is roughly 0.1 nM. Further, the EC50 in test [3] worked out at 0.3 nM.

B2: recombinant murine EphrinB2 (extracellular domain) (ligand, mouse, UniProt P52800 29-232, looked up)
chain: RSIVLEPIYWNSSNSKFLPGQGLVLYPQIGDKLDIICPKVDSKTVGQYEYYKVYMVDKDQADRCTIKKENTPLLNCARPDQDVKFTIKFQEFSPNLWGLEFQKNKDYYIISTSNGSLEGLDNQEGGVCQTRAMKILMKVGQDASSAGSARNHGPTRRPELEAGTNGRSSTTSPFVKPNPGSSTDGNSAGHSGNNLLGSEVALFA
modifications: biotinylated in Examples 8 and 10-12
notes: extracellular domain; also called mEphrinB2; recombinant biotinylated murine EphrinB2
With B2, the binding result in [4] was “binds”; in [5], “binds”; in test [6], “no binding (tested: 250 ng/mL)”.

B3: MOR07729 IgG4-Pro (antibody, V domains shown)
VH: QVELVQSGAEVKKPGSSVKVSCKASGGTFSTYAISWVRQAPGQGLEWMGRIIPIFGTANYAQKFQGRVTITADESTSTAYMELSSLRSEDTAVYYCARSSYTILTTYYNYNAMDNWGQGTLVTVSS
VL: DIQMTQSPSSLSASVGDRVTITCRASQNINNFLNWYQQKPGKAPKLLIYGSSILQSGVPSRFSGSGSGTDFTLTISSLQPEDFATYYCQQYDFYLSGTFGQGTKVEIKR
notes: Fab MOR07729 converted into human IgG4-Pro format
As a reminder, the EC50 (read off the curve) is the concentration that produces a half-maximal response. A lower EC50 (read off the curve) goes with a more potent agent. Take B3: the concentration for a half-maximal effect (EC50) in test [7] stood at 4.83 nM; in test [8], 4.8 nM. Moreover, in test [7], the “EC50 (read off the curve)” value is roughly 5 nM. Further, the IC50 in [1] and in test [9] was 11.6 nM each time. The “IC50 (read off the curve)” value in test [2] was roughly 20 nM.

The record behind these values is patent US20090137002A1 (published 2009).
